One substance from US20190194664 can be followed below.

The test system of the data set is eGFP-Polη.

As for “Rad18 mutant lacking the residues phosphorylated by the Cdc7 kinase (Rad18Δ401-445)”, the “suppression of UV-dependent Chk1 phosphorylation” value is “this mutant did not either suppress Chk1 phosphorylation”.
